# According to paper PMC10036535, “A naturally occurring mini-alanyl-tRNA synthetase”:
# Residue numbers refer to the chain shown, from its start.
# T1: EcAlaRS (Escherichia coli, UniProt P00957 1-876)
# T1 sequence: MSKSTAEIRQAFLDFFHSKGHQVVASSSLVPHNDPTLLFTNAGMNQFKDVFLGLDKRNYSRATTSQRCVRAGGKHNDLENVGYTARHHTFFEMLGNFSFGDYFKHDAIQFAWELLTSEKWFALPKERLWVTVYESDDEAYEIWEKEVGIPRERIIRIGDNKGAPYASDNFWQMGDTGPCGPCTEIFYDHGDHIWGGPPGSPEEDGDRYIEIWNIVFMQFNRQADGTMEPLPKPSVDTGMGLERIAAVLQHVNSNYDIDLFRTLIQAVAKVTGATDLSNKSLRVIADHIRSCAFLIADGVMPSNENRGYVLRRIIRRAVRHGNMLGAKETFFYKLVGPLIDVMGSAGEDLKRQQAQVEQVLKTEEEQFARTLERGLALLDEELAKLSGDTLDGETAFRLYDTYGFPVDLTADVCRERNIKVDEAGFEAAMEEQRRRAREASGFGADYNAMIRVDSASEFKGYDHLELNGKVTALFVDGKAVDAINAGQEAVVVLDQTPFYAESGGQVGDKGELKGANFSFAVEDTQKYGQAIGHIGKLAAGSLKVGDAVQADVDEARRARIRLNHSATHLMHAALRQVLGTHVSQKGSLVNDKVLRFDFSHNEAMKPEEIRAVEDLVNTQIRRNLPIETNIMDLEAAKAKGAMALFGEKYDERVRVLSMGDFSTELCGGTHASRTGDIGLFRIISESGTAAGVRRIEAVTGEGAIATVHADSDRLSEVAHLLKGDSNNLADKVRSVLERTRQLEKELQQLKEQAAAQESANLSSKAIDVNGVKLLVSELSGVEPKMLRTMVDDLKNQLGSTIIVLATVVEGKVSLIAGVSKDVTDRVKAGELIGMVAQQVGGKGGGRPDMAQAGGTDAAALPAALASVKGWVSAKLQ
# B1: EctRNAAla CCA to UUG (structured_RNA)
# RNA: GGGGCUAUAGCUCAGCUGGGAGAGCGCCUGCUUUGCAAGCAGGAGGUCUGCGGUUCGAUCCCGCAUAGCUCCAUUG
# modifications: none (in vitro transcript)
# B2: EctRNAAla (structured_RNA)
# RNA: B1 RNA with U74C, U75C, G76A
# modifications: none (in vitro transcript)
# B3: EctRNAAla delCCA (structured_RNA)
# RNA: GGGGCUAUAGCUCAGCUGGGAGAGCGCCUGCUUUGCAAGCAGGAGGUCUGCGGUUCGAUCCCGCAUAGCUCCA
# modifications: none (in vitro transcript)
# Key:
# [1] = tested on: TuAlaRS (Tupanvirus (of Acanthamoeba castellanii)); test: EMSA; details: none (in vitro transcript)
# EcAlaRS [2] = biological target: T1, EcAlaRS; test: EMSA; 5 mM Mg2+; hardly affected vs WT; EMSA: 20 mM HEPES pH 7.5, 20 mM KCl, 5 mM MgCl2, 2 mM DTT, 0.1 µM RNA, 10 min on ice, protein 0.0625-32 µM; 5% native PAGE, 0.5x TBE, 4 °C; details: protein: recombinant; label: 5'-32P; tRNA cloverleaf
# EcAlaRS [3] = biological target: T1, EcAlaRS; test: EMSA; 5 mM Mg2+; EMSA: 20 mM HEPES pH 7.5, 20 mM KCl, 5 mM MgCl2, 2 mM DTT, 0.1 µM RNA, 10 min on ice, protein 0.0625-32 µM; 5% native PAGE, 0.5x TBE, 4 °C; details: protein: recombinant; label: 5'-32P; tRNA cloverleaf
molecule,measurement,setting,value
GGGGCUAUAGCUUCUAGCCCCACCA [Ec-microAla G3:C70],Kd fold increase vs WT (fold increase in Kd vs WT),[1],3
GGGGCUAUAGCUCAGCUGGGAGAGCGCCUGCUUUGCAAGCAGGAGGUCUGCGGUUCGAUCCCGCAUAGCUCCACCA [EctRNAAla],Kd,[1],0.3 µM
GGGAUUUUAGCUUCUAAUUCUACCA [Ce-microAla],Kd,[1],0.4 µM
GGAGCUAUAGCUUCUAGCUCCACCA [Ec-microAla A3:U70],Kd fold increase vs WT (fold increase in Kd vs WT),[1],3
GGGGCUAUAGCUUCUAGCUCCACCA [Ec-microAla],Kd,[1],0.3 µM
B1,binding result,EcAlaRS [2],binds
B2,Kd,EcAlaRS [3],1 µM
B3,binding result,EcAlaRS [2],binds
